Source: the supplement of paper PMC9112550, “Optimization of the antimicrobial peptide Bac7 by deep mutational scanning” (BMC Biology, 2022)

Each sequence was assayed on Escherichia coli TOP10 (assay: shrunken log2 fold change of peptide-encoding DNA abundance (4.5 h post-induction vs induction); higher = less antimicrobial activity (less host growth inhibition)). Details: time post-induction: 4.5 h; library: site-saturation at positions 5, 18, 19, 20.
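Further: peptides expressed intracellularly from a pBAD plasmid library in pooled LB shake-flask culture, induced with 0.3% L-arabinose, DNA abundance read by NGS, three biological replicates, DESeq2 with apeglm shrinkage.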

Sequence	shrunken log2 fold change
RRIRRRPPRLPRPRPRPGIGPRP	-0.00887
RRIRIRPPRLPRPRPRPEHEPRP	-0.434
RRIRFRPPRLPRPRPRPDNHPRP	-0.232
RRIRYRPPRLPRPRPRPRHQPRP	-0.111
RRIRMRPPRLPRPRPRPISRPRP	0.074
RRIRIRPPRLPRPRPRPFCHPRP	-0.302
RRIRIRPPRLPRPRPRPHKPPRP	-0.00445
RRIRERPPRLPRPRPRPQGRPRP	-0.0137
RRIRLRPPRLPRPRPRPCGKPRP	-0.196
RRIRQRPPRLPRPRPRPEHSPRP	-0.0123
RRIRGRPPRLPRPRPRPRNTPRP	0.0904
RRIRNRPPRLPRPRPRPFSMPRP	-0.00235
RRIRWRPPRLPRPRPRPKGCPRP	-0.00617
RRIRRRPPRLPRPRPRPAQKPRP	0.547
RRIRCRPPRLPRPRPRPFYKPRP	0.979
RRIRKRPPRLPRPRPRPAATPRP	0.838
RRIRSRPPRLPRPRPRPESGPRP	0.351
RRIRERPPRLPRPRPRPHPLPRP	-0.0971
RRIRCRPPRLPRPRPRPRMLPRP	0.0183
RRIRPRPPRLPRPRPRPQKAPRP	1.05
RRIRERPPRLPRPRPRPHLGPRP	-0.0405
RRIRERPPRLPRPRPRPDKNPRP	-0.383
RRIRLRPPRLPRPRPRPFEYPRP	-0.0121
RRIRFRPPRLPRPRPRPFQVPRP	-0.309
RRIRQRPPRLPRPRPRPILCPRP	-0.0627

Sequence	shrunken log2 fold change
RRIRMRPPRLPRPRPRPWIMPRP	0.00173
RRIRARPPRLPRPRPRPCWWPRP	0.157
RRIRIRPPRLPRPRPRPHINPRP	-0.853
RRIRMRPPRLPRPRPRPCDQPRP	-0.134
RRIRDRPPRLPRPRPRPCYAPRP	0.326
RRIRMRPPRLPRPRPRPAATPRP	0.573
RRIRQRPPRLPRPRPRPMMRPRP	0.109
RRIRDRPPRLPRPRPRPHAVPRP	0.163
RRIRGRPPRLPRPRPRPWVWPRP	0.368
RRIRPRPPRLPRPRPRPTIVPRP	0.121
RRIRQRPPRLPRPRPRPIGSPRP	-0.00968
RRIRKRPPRLPRPRPRPWGPPRP	-0.125
RRIRKRPPRLPRPRPRPLGQPRP	0.991
RRIRLRPPRLPRPRPRPLFIPRP	-0.539
RRIRPRPPRLPRPRPRPDPDPRP	-0.0832
RRIRMRPPRLPRPRPRPAYDPRP	-0.0572
RRIRCRPPRLPRPRPRPGGSPRP	0.0334
RRIRQRPPRLPRPRPRPWLIPRP	-0.289
RRIRWRPPRLPRPRPRPKYWPRP	0.0306
RRIRARPPRLPRPRPRPLQRPRP	0.58
RRIRFRPPRLPRPRPRPICPPRP	-0.208
RRIRWRPPRLPRPRPRPMLRPRP	0.0624
RRIRWRPPRLPRPRPRPTDRPRP	-0.0423
RRIRQRPPRLPRPRPRPQMYPRP	-0.0131
RRIRCRPPRLPRPRPRPHQSPRP	-0.0603

Sequence	shrunken log2 fold change
RRIRGRPPRLPRPRPRPSDEPRP	0.178
RRIRKRPPRLPRPRPRPPYFPRP	-0.101
RRIRDRPPRLPRPRPRPVFQPRP	-0.134
RRIRNRPPRLPRPRPRPMRPPRP	0.537
RRIRRRPPRLPRPRPRPIDPPRP	-0.0222
RRIRARPPRLPRPRPRPYYCPRP	-0.331
RRIRYRPPRLPRPRPRPSITPRP	-0.857
RRIRCRPPRLPRPRPRPEFQPRP	0.0126
RRIRCRPPRLPRPRPRPMFSPRP	-0.48
RRIRYRPPRLPRPRPRPYNFPRP	-0.246
RRIRQRPPRLPRPRPRPPQLPRP	0.424
RRIRCRPPRLPRPRPRPSILPRP	-0.739
RRIRVRPPRLPRPRPRPHVQPRP	-0.0929
RRIRSRPPRLPRPRPRPCAQPRP	0.00151
RRIRDRPPRLPRPRPRPIVRPRP	-0.00112
RRIRKRPPRLPRPRPRPEWYPRP	-0.204
RRIRDRPPRLPRPRPRPMMKPRP	0.157
RRIRGRPPRLPRPRPRPAKMPRP	0.538
RRIRVRPPRLPRPRPRPIIGPRP	0.0272
RRIRQRPPRLPRPRPRPMNQPRP	-0.437
RRIRTRPPRLPRPRPRPCPNPRP	-0.000921
RRIRMRPPRLPRPRPRPFCQPRP	0.0975
RRIRARPPRLPRPRPRPWVCPRP	-0.136
RRIRFRPPRLPRPRPRPPQTPRP	0.473
RRIRHRPPRLPRPRPRPVCNPRP	-0.761

Sequence	shrunken log2 fold change
RRIRLRPPRLPRPRPRPTPHPRP	0.322
RRIRVRPPRLPRPRPRPQGEPRP	-0.227
RRIRGRPPRLPRPRPRPSVRPRP	0.529
RRIRERPPRLPRPRPRPFLCPRP	-0.143
RRIRKRPPRLPRPRPRPMHEPRP	0.191
RRIRARPPRLPRPRPRPMPLPRP	-0.0326
RRIRTRPPRLPRPRPRPRWDPRP	0.0818
RRIRFRPPRLPRPRPRPVASPRP	0.0266
RRIRCRPPRLPRPRPRPCVFPRP	-0.0388
RRIRWRPPRLPRPRPRPDNSPRP	-0.0707
RRIRFRPPRLPRPRPRPCLLPRP	-1.19
RRIRQRPPRLPRPRPRPKRNPRP	0.29
RRIRFRPPRLPRPRPRPMFMPRP	-0.14
RRIRMRPPRLPRPRPRPYREPRP	-0.0131
RRIRARPPRLPRPRPRPATAPRP	0.452
RRIRKRPPRLPRPRPRPQNRPRP	-0.169
RRIRGRPPRLPRPRPRPMDVPRP	0.265
RRIRRRPPRLPRPRPRPWHTPRP	-0.456
RRIRDRPPRLPRPRPRPRHFPRP	-0.0107
RRIRHRPPRLPRPRPRPYYFPRP	-0.178
RRIRARPPRLPRPRPRPDNEPRP	0.301
RRIRKRPPRLPRPRPRPWVRPRP	-0.0489
RRIRCRPPRLPRPRPRPVEQPRP	-0.0247
RRIRCRPPRLPRPRPRPIKYPRP	-0.608
RRIRQRPPRLPRPRPRPRPVPRP	0.336

Sequence	shrunken log2 fold change
RRIRYRPPRLPRPRPRPSHTPRP	-1.39
RRIRQRPPRLPRPRPRPKDAPRP	0.0166
RRIRKRPPRLPRPRPRPLYEPRP	0.0468
RRIRHRPPRLPRPRPRPGNGPRP	0.278
RRIRERPPRLPRPRPRPYVKPRP	0.04
RRIRFRPPRLPRPRPRPATPPRP	0.315
RRIRRRPPRLPRPRPRPQYRPRP	-0.0575
RRIRERPPRLPRPRPRPMEMPRP	0.0606
RRIRARPPRLPRPRPRPWLNPRP	-0.175
RRIRMRPPRLPRPRPRPWMHPRP	-0.128
RRIRGRPPRLPRPRPRPGRFPRP	0.45
RRIRARPPRLPRPRPRPQFWPRP	0.148
RRIRHRPPRLPRPRPRPVFQPRP	-0.0932
RRIRIRPPRLPRPRPRPWNKPRP	-0.0719
RRIRMRPPRLPRPRPRPTHCPRP	0.34
RRIRERPPRLPRPRPRPKFPPRP	0.0509
RRIRRRPPRLPRPRPRPYLHPRP	-0.307
RRIRIRPPRLPRPRPRPAMLPRP	-0.22
RRIRIRPPRLPRPRPRPIVRPRP	-0.339
RRIRLRPPRLPRPRPRPAVTPRP	-0.0968
RRIRARPPRLPRPRPRPIWAPRP	0.439
RRIRQRPPRLPRPRPRPRNKPRP	-0.68
RRIRKRPPRLPRPRPRPYKMPRP	-0.47
RRIRTRPPRLPRPRPRPIDAPRP	-0.0859
RRIRERPPRLPRPRPRPTFQPRP	-0.103

Sequence	shrunken log2 fold change
RRIRGRPPRLPRPRPRPHPKPRP	0.865
RRIRLRPPRLPRPRPRPRHQPRP	-0.254
RRIRPRPPRLPRPRPRPNGNPRP	-0.144
RRIRERPPRLPRPRPRPVQVPRP	-0.227
RRIRQRPPRLPRPRPRPRSDPRP	-0.208
RRIRKRPPRLPRPRPRPPAMPRP	0.635
RRIRVRPPRLPRPRPRPPDAPRP	0.254
RRIRPRPPRLPRPRPRPWASPRP	0.0361
RRIRNRPPRLPRPRPRPDYEPRP	-0.00884
RRIRCRPPRLPRPRPRPEACPRP	0.0368
RRIRARPPRLPRPRPRPPMDPRP	0.515
RRIRIRPPRLPRPRPRPVLIPRP	-0.469
RRIRYRPPRLPRPRPRPLRSPRP	0.538
RRIRKRPPRLPRPRPRPRGFPRP	0.18
RRIRFRPPRLPRPRPRPRMTPRP	0.128
RRIRYRPPRLPRPRPRPDCRPRP	-0.363
RRIRFRPPRLPRPRPRPQDRPRP	-0.591
RRIRCRPPRLPRPRPRPTNLPRP	-0.656
RRIRGRPPRLPRPRPRPPKRPRP	0.701
RRIRLRPPRLPRPRPRPCDNPRP	-0.161
RRIRMRPPRLPRPRPRPKHFPRP	0.176
RRIRRRPPRLPRPRPRPGDYPRP	-0.045
RRIRVRPPRLPRPRPRPYLSPRP	-0.491
RRIRERPPRLPRPRPRPYWQPRP	-0.172
RRIRIRPPRLPRPRPRPAYSPRP	-0.534
